US20120316071A1 (published 2012)

What was measured:
[1] = molecular target: T1, Recombinant Human DLL4 (delta-like protein 4) (human, UniProt Q9NR61 27-524); assay: ELISA on plate-coated DLL4, absorbance at 450 nm, signal minus noise
T1 construct: Bought recombinant protein (R&D Systems Cat#1506-D4/CF); also called rHuman DLL4; Delta-like 4

[2] = molecular target: T1, Recombinant Human DLL4 (delta-like …); assay: ECL (MSD) multispot binding assay, immobilized DLL4, 10 nM Fab, signal over blank
[3] = molecular target: T2, rHuman ErbB2/Fc Chimera, CF (R&D Systems Cat#1129-ER) (human, UniProt P04626 23-652); assay: ECL (MSD) multispot binding assay, antigen spotted on plate, 20 nM Fab;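 note: purified Fab incubated 1 h at 20 °C on antigen-spotted plate, bound Fab revealed with TAG detection antibody, ECL read, antigen signal divided by same-well blank, ratio ≥4 counted as hit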
T2 construct: Bought reagent; also called human epidermal growth factor 2 receptor; Fc part of the bought chimera not given

[4] = molecular target: T3, rHuman EGF R/Fc Chimera, CF (R&D Systems Cat#344-ER) (human, UniProt P00533 25-645); assay: as above
T3 construct: Bought reagent; also called epidermal growth factor receptor; Fc part of the bought chimera not given

[5] = molecular target: T4, rHuman Notch-1/Fc Chimera, CF (R&D Systems Cat#3647-TK) (human, UniProt P46531 19-526); assay: as above
T4 construct: Bought reagent; Fc part of the bought chimera not given

[6] = molecular target: T5, rHuman CD44/Fc Chimera, CF (R&D Systems Cat#3660-CD) (human, UniProt P16070 21-220); assay: as above
T5 construct: Bought reagent; Fc part of the bought chimera not given

[7] = molecular target: T6, rHuman IGF-1 sR, CF (R&D Systems Cat#391-GR) (human, UniProt P08069 31-932); assay: as above
T6 construct: Bought soluble receptor; also called insulin-like growth factor-1 soluble receptor

[8] = molecular target: T7, rHuman P-Cadherin/Fc Chimera, CF (R&D Systems Cat#861-PC) (human, UniProt P22223 108-654); assay: as above
T7 construct: Bought reagent; Fc part of the bought chimera not given

[9] = molecular target: T8, rHuman Erythropoietin R/Fc Chimera, CF (R&D Systems Cat#963-ER) (human, UniProt P19235 25-250); assay: as above
T8 construct: Bought reagent; also called EPO R; EPO R/Fc; Fc part of the bought chimera not given
T8 sequence (looked up): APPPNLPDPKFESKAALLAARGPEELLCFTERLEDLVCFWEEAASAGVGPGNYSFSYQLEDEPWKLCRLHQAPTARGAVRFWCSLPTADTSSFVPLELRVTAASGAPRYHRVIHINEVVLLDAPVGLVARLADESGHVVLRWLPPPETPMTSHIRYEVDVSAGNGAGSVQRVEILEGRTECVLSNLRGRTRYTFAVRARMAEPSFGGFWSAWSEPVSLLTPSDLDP

[10] = molecular target: T9, Recombinant Human DLL4 (R&D Systems Cat#1506-D4/CF) (human, UniProt Q9NR61 27-524); assay: as above
T9 construct: Bought recombinant protein; also called delta-like protein 4; rHuman DLL4

B1: Fab VH1-46_IGHD6-6*01_IGHJ1*01 S102A/S103P/S104F/H111F S84K & L6_IGKJ1*01 (Fab, V domains shown)
VH: QVQLVQSGAEVKKPGASVKVSCKASGYTFTSYYMHWVRQAPGQGLEWMGIINPSGGSTSYAQKFQGRVTMTRDTSTSTVYMELKSLRSEDTAVYYCAREEYAPFSAEYFQFWGQGTLVTVSS
VL: not shown
notes: Tested as Fab expressed in E. coli; also called APFF S84K
ELISA (Signal-Noise) [1]: 0.29 | Signal/Blank [10 nM Fab] [2]: 448

B2: Fab VH1-46_IGHD6-6*01_IGHJ1*01 S102A/S103P/S104F/H111F S84N & L6_IGKJ1*01 (Fab, V domains shown)
VH: QVQLVQSGAEVKKPGASVKVSCKASGYTFTSYYMHWVRQAPGQGLEWMGIINPSGGSTSYAQKFQGRVTMTRDTSTSTVYMELNSLRSEDTAVYYCAREEYAPFSAEYFQFWGQGTLVTVSS
VL: not shown
notes: Tested as Fab expressed in E. coli; also called APFF S84N
ELISA (Signal-Noise) [1]: 0.47 | Signal/Blank [10 nM Fab] [2]: 497

B3: Fab VH1-46_IGHD6-6*01_IGHJ1*01 S102A/S103P/S104F/H111F S84Q & L6_IGKJ1*01 (Fab, V domains shown)
VH: QVQLVQSGAEVKKPGASVKVSCKASGYTFTSYYMHWVRQAPGQGLEWMGIINPSGGSTSYAQKFQGRVTMTRDTSTSTVYMELQSLRSEDTAVYYCAREEYAPFSAEYFQFWGQGTLVTVSS
VL: not shown
notes: Tested as Fab expressed in E. coli; also called APFF S84Q
ELISA (Signal-Noise) [1]: 0.39 | Signal/Blank [10 nM Fab] [2]: 413

B4: Fab VH3-23_IGHD2-21*01>3_IGHJ6*01 H100E/S108P/Y113G Y114I & V2-13_IGLJ2*01 (Fab, V domains shown)
VH: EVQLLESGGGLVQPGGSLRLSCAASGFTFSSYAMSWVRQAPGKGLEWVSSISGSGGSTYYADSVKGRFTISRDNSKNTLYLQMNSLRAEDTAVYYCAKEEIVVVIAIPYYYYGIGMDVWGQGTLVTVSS
VL: SSELTQDPAVSVALGQTVRITCQGDSLRSYYASWYQQKPGQAPVLVIYGKNNRPSGIPDRFSGSSSGNTASLTITGAQAEDEADYYCNSRDSSGNHLVVFGGGTKLTVL
notes: Tested as Fab made in E. coli (VH-CH1 with His and Flag tags; lambda CL); also called EPG Y114I
ECL multispot value [3]: 11.4 | ECL multispot value [4]: 7.1 | ECL multispot value [5]: 2.6 | ECL multispot value [6]: 1.8 | ECL multispot value [7]: 1.4 | ECL multispot value [8]: 22.6 | ECL multispot value [9]: 162 | ECL multispot value [10]: 2.4

B5: Fab VH3-23_IGHD2-21*01>3_IGHJ6*01 H100E/S108P/Y113G Y112G & V2-13_IGLJ2*01 (Fab, V domains shown)
VH: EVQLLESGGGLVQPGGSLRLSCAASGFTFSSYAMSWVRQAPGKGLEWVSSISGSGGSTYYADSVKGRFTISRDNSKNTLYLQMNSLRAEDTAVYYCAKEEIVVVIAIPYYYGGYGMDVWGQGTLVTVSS
VL: SSELTQDPAVSVALGQTVRITCQGDSLRSYYASWYQQKPGQAPVLVIYGKNNRPSGIPDRFSGSSSGNTASLTITGAQAEDEADYYCNSRDSSGNHLVVFGGGTKLTVL
notes: Tested as Fab made in E. coli (VH-CH1 with His and Flag tags; lambda CL); also called EPG Y112G
ECL multispot value [3]: 1.4 | ECL multispot value [4]: 1.7 | ECL multispot value [5]: 2.1 | ECL multispot value [6]: 1.2 | ECL multispot value [7]: 1 | ECL multispot value [8]: 2.3 | ECL multispot value [9]: 7.9 | ECL multispot value [10]: 1.3

B6: Fab VH3-23_IGHD2-21*01>3_IGHJ6*01 H100E/S108P/Y113G Y112R & V2-13_IGLJ2*01 (Fab, V domains shown)
VH: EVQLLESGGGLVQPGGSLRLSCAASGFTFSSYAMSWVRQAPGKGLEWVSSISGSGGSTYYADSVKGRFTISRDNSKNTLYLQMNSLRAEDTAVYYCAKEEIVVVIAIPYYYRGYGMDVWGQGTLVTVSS
VL: SSELTQDPAVSVALGQTVRITCQGDSLRSYYASWYQQKPGQAPVLVIYGKNNRPSGIPDRFSGSSSGNTASLTITGAQAEDEADYYCNSRDSSGNHLVVFGGGTKLTVL
notes: Tested as Fab made in E. coli (VH-CH1 with His and Flag tags from plasmid A; lambda CL from plasmid E); also called EPG Y112R
ECL multispot value [3]: 5.9 | ECL multispot value [5]: 2.7 | ECL multispot value [6]: 1.6 | ECL multispot value [7]: 1.5 | ECL multispot value [8]: 30 | ECL multispot value [9]: 85.1 | ECL multispot value [10]: 2.6

B7: Fab VH3-23_IGHD2-21*01>3_IGHJ6*01 H100E/S108P/Y113G Y114E & V2-13_IGLJ2*01 (Fab, V domains shown)
VH: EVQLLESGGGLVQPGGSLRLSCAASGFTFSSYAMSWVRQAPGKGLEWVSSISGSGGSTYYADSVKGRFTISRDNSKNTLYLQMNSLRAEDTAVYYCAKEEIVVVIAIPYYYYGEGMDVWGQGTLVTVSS
VL: SSELTQDPAVSVALGQTVRITCQGDSLRSYYASWYQQKPGQAPVLVIYGKNNRPSGIPDRFSGSSSGNTASLTITGAQAEDEADYYCNSRDSSGNHLVVFGGGTKLTVL
notes: Tested as Fab made in E. coli (VH-CH1 with His and Flag tags; lambda CL); also called EPG Y114E
ECL multispot value [3]: 7.4 | ECL multispot value [4]: 6.8 | ECL multispot value [6]: 1.5 | ECL multispot value [7]: 1.5 | ECL multispot value [8]: 13.9 | ECL multispot value [9]: 69.2 | ECL multispot value [10]: 2.2

B8: Fab VH3-23_IGHD2-21*01>3_IGHJ6*01 H100E/S108P/Y113G Y114N & V2-13_IGLJ2*01 (Fab, V domains shown)
VH: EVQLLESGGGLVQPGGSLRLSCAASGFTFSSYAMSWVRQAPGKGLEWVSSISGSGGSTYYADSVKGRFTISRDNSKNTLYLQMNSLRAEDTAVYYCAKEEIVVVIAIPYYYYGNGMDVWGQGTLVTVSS
VL: SSELTQDPAVSVALGQTVRITCQGDSLRSYYASWYQQKPGQAPVLVIYGKNNRPSGIPDRFSGSSSGNTASLTITGAQAEDEADYYCNSRDSSGNHLVVFGGGTKLTVL
notes: Tested as Fab made in E. coli (VH-CH1 with His and Flag tags; lambda CL); also called EPG Y114N
ECL multispot value [4]: 2.6 | ECL multispot value [5]: 2 | ECL multispot value [6]: 1.2 | ECL multispot value [7]: 1.2 | ECL multispot value [8]: 5.9 | ECL multispot value [9]: 35 | ECL multispot value [10]: 1.6

B9: Fab VH3-23_IGHD2-21*01>3_IGHJ6*01 H100E/S108P/Y113G Y114S & V2-13_IGLJ2*01 (Fab, V domains shown)
VH: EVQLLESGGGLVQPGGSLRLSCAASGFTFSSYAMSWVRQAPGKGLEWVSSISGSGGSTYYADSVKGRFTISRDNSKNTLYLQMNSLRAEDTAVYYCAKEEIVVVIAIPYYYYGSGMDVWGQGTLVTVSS
VL: SSELTQDPAVSVALGQTVRITCQGDSLRSYYASWYQQKPGQAPVLVIYGKNNRPSGIPDRFSGSSSGNTASLTITGAQAEDEADYYCNSRDSSGNHLVVFGGGTKLTVL
notes: Tested as Fab made in E. coli (VH-CH1 with His and Flag tags; lambda CL); also called EPG Y114S
ECL multispot value [3]: 8.7 | ECL multispot value [4]: 5 | ECL multispot value [5]: 2.9 | ECL multispot value [6]: 1.4 | ECL multispot value [7]: 1.3 | ECL multispot value [8]: 15.8 | ECL multispot value [9]: 68.5 | ECL multispot value [10]: 2.2

B10: Fab VH3-23_IGHD2-21*01>3_IGHJ6*01 H100E/S108P/Y113G Y114W & V2-13_IGLJ2*01 (Fab, V domains shown)
VH: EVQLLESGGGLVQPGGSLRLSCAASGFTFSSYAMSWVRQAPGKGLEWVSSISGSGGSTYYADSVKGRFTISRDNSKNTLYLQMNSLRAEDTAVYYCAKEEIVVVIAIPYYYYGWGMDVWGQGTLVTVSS
VL: SSELTQDPAVSVALGQTVRITCQGDSLRSYYASWYQQKPGQAPVLVIYGKNNRPSGIPDRFSGSSSGNTASLTITGAQAEDEADYYCNSRDSSGNHLVVFGGGTKLTVL
notes: Tested as Fab made in E. coli (VH-CH1 with His and Flag tags; lambda CL); also called EPG Y114W
ECL multispot value [3]: 9.3 | ECL multispot value [4]: 6.6 | ECL multispot value [5]: 2.2 | ECL multispot value [6]: 1.6 | ECL multispot value [7]: 1.1 | ECL multispot value [8]: 16.7 | ECL multispot value [10]: 1.9
